Reference: article PMC12559092 (2025)
Each block holds one binder with its values, some of them ahead of it.

Target: T1, VEGFR-2-Fc domain 1&2&3 (Homo sapiens, UniProt P35968)
T1 chain: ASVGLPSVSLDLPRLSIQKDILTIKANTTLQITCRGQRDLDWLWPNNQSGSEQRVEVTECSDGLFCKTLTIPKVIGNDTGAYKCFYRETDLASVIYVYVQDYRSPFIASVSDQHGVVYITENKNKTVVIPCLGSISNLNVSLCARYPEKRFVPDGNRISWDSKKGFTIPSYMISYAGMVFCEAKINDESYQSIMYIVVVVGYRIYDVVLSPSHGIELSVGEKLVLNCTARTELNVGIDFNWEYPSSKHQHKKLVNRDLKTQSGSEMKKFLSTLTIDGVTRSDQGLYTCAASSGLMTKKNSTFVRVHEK
Experiment: biolayer interferometry

Kd: 0.0035 µM
B1: VEGF-165 (protein)
chain: MTDRQTDTAPSPSYHLLPGRRRTVDAAASRGQGPEPAPGGGVEGVGARGVALKLFVQLLGCSRFGGAVVRAGEAEPSGAARSASSGREEPQPEEGEEEEEKEEERGPQWRLGARKPGSWTGEAAVCADSAPAARAPQALARASGRGGRVARRGAEESGPPHSPSRRGSASRAGPGRASETMNFLLSWVHWSLALLLYLHHAKWSQAAPMAEGGGQNHHEVVKFMDVYQRSYCHPIETLVDIFQEYPDEIEYIFKPSCVPLMRCGGCCNDEGLECVPTEESNITMQIMRIKPHQGQHIGEMSFLQHNKCECRPKKDRARQEKKSVRGKGKGQKRKRKKSRYKSWSVPCGPCSERRKHLFVQDPQTCKCSCKNTDSRCKARQLELNERTCRCDKPRR

Kd: ~124 µM
B2: VEGF73-101 (peptide)
chain: Ac-ESNITMQIMRIKPHQGQHIGEMSFLQHMK-NH2
